In a protein production outcome set (Wang et al. 2014) one finds protein production data, which are given here for 18 sequences.

This data set is described as follows: label from the status in PepcDB records.

Consider “MSRKILDRYIAKTVLSAIGLVTLMLVGLQIFILFVNQIDDLGRADYGIVQAGVFVLLQMPYQVYLFFPIASLLGCLVGLGVLANHSELVVMRAAGISIGQITGAVLKASLIVILLITSLGETIVPVMAHYANEYKVSALTGGQALLTPRGVWVRNGNDFVSIASVTHENTLRYVNQFRFDNQHNLKLARQISEVKYVNNSWIAYDVKQTEFAEDHTKAHHFDTLPWDVPVKPEILKITGTNPDEMTLHELNRYLREQQRNHQNVANYKFAFFQRITQPLNTMVMMILAIPFIFGPLRSSTMGSKLLVGAMVGFGFHILNRFFGPVSTVFQWPPELAAFSPTLIFSLIGIYLMRRVR”, for which the protein production result is “failed”.
For the sequence “MSRNRVMSIDFQQLPHAGIRSLIPYVPGKSIEELAKEKGITDIIKLASNENPLGCSPLALSVIQTMSSHYIATYPSPWNHPLMSKLASYLKVKPEQLFLSNGSDYLFNILLNCFALHTDRHILTHDYAFSTYAIQANSLQIPINSVPIGHNWEVNITDIVNACNQQTGIIFIANPNNPTGVLIQQEEIKYLLEQIPKSTLLVLDEAYYEFAASQLTVNSLDWLEEHPNLVVTRTFSKIYGMAGLRLGYAIANPSIINILKRVQLPFIVNQVALAAAYAAIDDDDFIQSSLKMNNEGMLQLQAGFNELNIKYLPSSCNFLTFDCEEDSMALYNYLLDNGIIVRPLHAYKMNNFIRVTIGTKEQNSRFLTALKNFYL”, the protein production entry was “failed”.
Under “MSRPDDIDVRPIAEAETADWIRALNTGFLRSPEVSEREVADRSSYLVPARTLGAFDNGRCVATFRSFPQELTAVGGASVPADAISNVTVTATHRRRGLLTRMMAQDLAAAKERGDVVATLIAAEYPIYGRYGFGAATHSTEWTID” stands “failed”; under “MSRPSVNRSGEMEIFAKAVELGGFSAAARHYRMTPSAVSKLVLRLEERLGVRLVNRSTRKLQLTPEGHAFYERTVRILADIDEAERSASAGESPVGRVRLNVNASFGTHVLMPLVPEFRAHFPAVSLDIVMTDAVVDLMEARADVAIRAGPLKSSTLIARKLGATRMMIVAAPSYIERYGMPSSLEELKGHERLGFCYARAVDGWPLRTDGETVVLPASGAVQVSDGEGLRQLALAGAGLARLAEFTVREDVSARRLVPVLEDLNPGDLEEVHAVYLGQGGALPARVRAVLDFLARHARITPGQDAGRRRTSPIPAPA”, “failed”.
Under “MSRQAEDLMVRTLSDASSLFGKERYKKALEKLDKAEKLAEKTKRTDILCRVLLQKGAVMNSMGKPDEGQDLYDKALDIYRTSNLNEQESSVLKHTLSNTFSELAKHFKMVDSIENAEKCYLNEIKVYEILLEKDPEDEDSNLEIARVFKAIGDLYEYFKPEKMDPETERQYYEKILDIREKAFELLPDSETYIYDLAHALGKLVDYYIIRQDYKSAIQFQERVVEVMEELIDLLANWKDLKAKSNAYDKLGSLYAEIGEEELAQEQYSKALEYYGMIFDDELWPLSVKAMLASELMERGKTLLLLKKYESAKESMDVALDFLEGVDKEEMEDSTEESLDLASVILGEGYEEESEDSGYLAELAGIFREYAKTLSDLNRNEEAEEFTAKSEKILRKLA” stands “failed”.
In the case of “MSRRAGHNGRPLLEVPMLLRGLTWLVLFQLLGTGLNVLLLPMLPGPIIGLVLLFGYFLARGEVGKPVNEAAGSLLRYLPLLLVPAAVGVMAYAREIAADFWAIVGALVLSLLLSFLFAGWMMQKLIDRQQRRREES”, the protein production result is recorded as “failed”.
Under “MSRSDNGGEDKGLRITRREFLAAAGAGAAAFIVGAVVGSTAFPREKEVVKPGPTQTVTATATETATVTETQTQVQLVEKKYPKVKIANVSELREGQPVFKEYIGHRIVVIKLGEEAVNGVGPDKDIVAFSMLCTHMGGFLIFDGNTKTLICPLHFSQFDPSRGGQPVVGHATEYLPQVILEYDEASGDIFAVGFTALVYGRYDNLQGVKA” stands “failed”; under “MSRSPEQDSDWMTGVGDSAAGESARVARLVRVAQHIEMHADEALTLSSLAKVAALSPSRLQKQFKAAFGVSPKAYQDAVRMRRFKQSLKDGSKVTDAIFASGFGSVSRVYGEANRSIGMPPRAYRAGGAGEVIVYAGRTTALGLMMMAATERGVCFVEFGDDEASLVGRLRSEFPKAELTASPARNAPELDAWMEALDQHISAGAPRPDLPLDMRGTAFQVKVWQFLLSIREGDVLSYSEVAARIDKPRAVRAVASACGKNRIGVLIPCHRVLRGDGGLGGYRWGLERKRALLEAERRSVTRE”, “failed”; under “MSRSVPDRWNMHKPMLCDSLPTASRTAAAILNLAQREDVTAEALAQLIQTDPALTGRILRFANAPAQGTRRPVASVIDAIDLVGLPAVRQFALSLSLIDAHREGRCEAFDYAAYWQKSLARAVALQSITAQASTVAPKEAFTLGLLADVGRLALATAWPEEYSECLRKADGEALIALERERFATDHDELTRMLLTDWGFPQVFIDALQLSQQDEIRDEGRTGRFARQLALAQHIADHRLAEEPRRAALSPLLRAEARRCGLGDEDLARLLADPPADWLDWTRTIGLPGDAPTGGAEPSRPPPQTDEKLHVLLADDDPIMLARLSRQLEADGHHVASRRDGETALAYALEHQPEMVITDWHMKPMNGLELCRALRESALGGNVYIVMLTASESEDALVEAFGAGIDDYVIKPPSVRVLKARIRAGQRIITLHKKLARERKEIERYSSELAAANRRLELMAHTDQLTGLPNRRYAMDRLEREWAQARTFDRPLSIMMLDLDWFKSINDSLGHDAGDQALVHAARVMRETVRTSDVVCRMGGEEFLIIIPDTAGPAAIQTAERVRSAVEQQQPAKLKLSRPLTASIGVADSTSAPSLKDLLLKADNALYQVKQNGRNGVRYAGLLEHHHHHH”, “not failed”.
Under “MSRTIAETPRPAVASMSSGCIPPHHRPDTLKQRWGTPAAVCLLVTCLFAMTLLTTGCKPPRRTPPTLPDRPDMATVEQPVVPPATVDGKDLDAPQTPKERIALALRLLDDGGDGADPTQAVQLIEQDATTGYAPAQDLLARLSLEGYGTAKDPARAFALAIEAARQGLPDAQRLAGTMYTLGLGTARDLEQGMRWLREAADAGDGEAAAMVADYYRQGLGVERNDTEAFLWTHRAAERGVKRAALWLGLHYHYGVGTPADQKQAFALLRPFADEGDAEALTIIALLLHKGEGVAQDRKAALRYFEKGAAAGDPVAQLDLGVLYHQGDGVTRDMDKARGLFRQCAEGGNARCMTLYASMLEEGEGGPSDPAEALAWYMVASMAGDDDATPFLDDLRSRITAEQAAQGKVRATAIIRSLTASPAADEASRQSSGQTAGQASGHASGQTPESTSARTSAPVPSALPREAAGKRPTVLP” stands “failed”; under “MSRVKILDEETISHIAAGEVVERAASVVKELVENAVDADAQIIRIGISADKTGITKISVTDDGIGMDFDDALLAFRQHATSKISRPEDLDGITTLGFRGEALASIAAISKVTFTTKERGSPSPEAARVVIHGGELISHSAVGAPEGTSVLIDALFYNTPARRKFQKSVPTELSHVYDMVERIALSNRNISFVLLYNGKERFQTFGTGSYPDVIAAVFGSTFSKELTPVSGSFGPVKIDGWITRPGSEMKTTQTRFYLSINGRQVTSRQLQWAIREGYGTLLPKGMYPAAFLDIVLDPRDVDVNVHPTKREVRLSREREVMRCVQDAVYTSLHEERVFSTAPMPTLARETITTLPVEIVGEPVPVYAGKQEMHEARQAPLKQTEKQLRRTESADLPETDLFVPEVLGQIGDTYILAKNESGDLIVVDQHAAHERIMYDQLLARSSSAEAGQELIVPQPITLSKKETAALPDLLDVLAAAGYLLEPFGKDVWMVRSVPVVSSTLGDPDTIHAILDAALDGVGNTDEVLDRVLKTAACRAVVKGNTPLTIEQMQRLLRQLMATKSPYTCPHGRPTTIVLSKSRLAGMFLRT”, “failed”.
Under “MSRVPEPSVFLVVDEAKRKARERGVGLIDLSIGSTDLPPPEAPLKALAEALNDPTTYGYCLKSCTLPFLEEAARWYEGRYGVGLDPRREALALIGSQEGLAHLLLALTEPEDLLLLPEVAYPSYFGAARVASLRTFLIPLREDGLADLKAVPEGVWREAKVLLLNYPNNPTGAVADWGYFEEALGLARKHGLWLIHDNPYVDQVYEGEAPSPLALPGAKERVVELFSLSKSYNLAGFRLGFALGSEEALARLERVKGVIDFNQYAGVLRMGVEALKTPKEVVRGYARVYRERALGMAEALKGVLSLLPPRATMYLWGRLPEGVDDLEFGLRLVERGVALAPGRGFGPGGKGFVRIALVRPLEELLEAAKRIREALD” stands “not failed”.
Take “MSSATKSSPATGGYLHYATLAPWKTLLRTRAYPGSLAGGSEATEATVAMELAEDWLVESLRLYQDFHAFDLSGATRVLEWVGEKGVFVAGYESLKKNEILHLILPLRLSVKENQGLYPERDFKVRHGGFSDRAVFDLKHVPDTRLLVTSGLPGCYIQVWQIREDNDVIEAVSTIDVQDKEESLWPRVSIFCSAAPGILHGARLSGLRTVDVESRKITYSSDTTDSESLSSLQVLDADTFAFCGTSGRLGLVDTRQKWAPLETVSPRAGSSGERWCAEVRSKGQGPGPCIASLGSDGQLCLLDPRNLRDPVSSAQCPVFKSSPDPELLRVTWAPGLDNCLAISGFDGTVQIYDVTSWDGKKTQVEALFIHKGHIFLDGNEVESAPLVTTHTWHPSKPRTLLSAASDAALHVWDWVDLQAS”: the protein production entry is given as “failed”.
In the case of “MSSEAVDATTLVIIPTYNELENLPLIVDRVRTATPDVHVLIVDDNSPDGTGERADKLAADDDHIFVLHREGKGGLCAAYMAGFQWGLERDYQVLCEMDADGSHAPEQLHLLLAEITNGADLVIGSRYVPGGRVVNWPKNRWLLSKGGNVYISVALGAGLTDMTAGYRAFRREVLEALPLDELSNAGYIFQVEIAYRAVEAGFDVREVPITFTEREIGESKLDGSFVKDSLLEVTKWGLKHRGGQAKELSKEMVGLLNYEWKHFKKRNTWLLEHHHHHH”, the protein production result is on record as “failed”.
For “MSSEHSANGGPASAYGKPTFARASTPLPIQSAHMASDPIQITPSLTIPPSELVERFVRASGAGGQNVNKVSTAVELRFDVAGSPSLPEPLRARLLSRRDRRMTAEGVLVIDAQRFRTQDRNRDDARERLAEIISACLSVPKRRVATKPSHGAKLRRLDAKRERSHIKRGRSASHWE”, the protein production result is “failed”.
Under “MSSERVLSNARVVSAERVFVGSVLLRDGLIAAVDEGRSHLAGAEDLGGDYLLPGLVELHTDNLEKHMTPRPGVDWPSASAVLAHDAQIVSAGITTVFDALSIGDVNPKGKRMQQLPKMLEAIGEAAASGDARADHRLHLRCEVSHPQTLEVFRELVEHPLVQLVSVMDHAPGQRQFARLEKYREYYQGKYHLSDAEMDAFIVEQVANSERYSDAARAAIVDVCQGRGLSVASHDDATLAHVRESAGYGMAIAEFPTTVEAARASHEHGLQVLMGAPNVVRGGSHSGNVAAAQLAGIGVLDILSSDYYPASLLHAALLLAGEHSEYDAIRYDLPRAVAMVSRTPALAAGLTDRGEIRVGLRADLLQARALGNNQPVVRQVWRGGQRVF” stands “failed”; under “MSSFLRPAVSGQDPFTTGNYRAISSHLAITPPVSVVIPAMNEAENLPYVFKSLPDWIHEVVLVDGNSTDGTVEVARELWPDVKVVEQRGKGKGDALITGFEACTGDIIVMVDADGSADGQEIVSYVSALVSGADFAKGSRFANGGGTSDMTPIRKLGNRVLCAAVNAKFGARYTDLCYGYNAFWRHCLDQIDLDCTGFEVETLMNIRVVKAGLKVQEIPSHEYLRIHGASNLRAVRDGLRVLKVILKERSNRRALRSRPHAMQLNSGQGEVSLEHHHHHH”, “not failed”.
Under “MSSGKVIVYGGKGALGSAILEFFKKNGYTVLNIDLSANDQADSNILVDGNKNWTEQEQSILEQTASSLQGSQVDGVFCVAGGWAGGSASSKDFVKNADLMIKQSVWSSAIAAKLATTHLKPGGLLQLTGAAAAMGPTPSMIGYGMAKAAVHHLTSSLAAKDSGLPDNSAVLTIMPVTLDTPMNRKWMPNADHSSWTPLSFISEHLLKWTTETSSRPSSGALLKITTENGTSTITPQ” stands “not failed”.
